Data from US20090221680, “Aptamers that bind thrombin with high affinity” (published 2009).

Legend:
[1] = target: T1, thrombin (endogenous, clotting assay in plasma or whole blood) (Homo sapiens, UniProt P00734;P00734 P00734:328-363,P00734:364-622); test: inhibition; PT at 10 uM
[2] = target: T1, thrombin (endogenous, clotting assay in …); test: inhibition; ACT at 10 uM
[3] = target: T1, thrombin (endogenous, clotting assay in …); test: inhibition; PT at 10 uM; remark: listed apart in the source
[4] = target: T1, thrombin (endogenous, clotting assay in …); test: inhibition; ACT at 10 uM aptamer
[5] = target: T2, thrombin (alpha-thrombin) (Homo sapiens, UniProt P00734;P00734 P00734:315-363,P00734:364-622); test: filter; 10 nM thrombin
[6] = target: T2, thrombin (alpha-thrombin); test: filter; DPBS Ca2+ Mg2+, 0.1 mg/ml BSA
prothrombin = prothrombin (Homo sapiens, UniProt P00734 P00734:44-622); test: filter; 50 nM prothrombin; settings: tags: Athens Research
Method in brief: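 Trace 5′-³²P-labeled RNA clones incubated ±50 nM prothrombin with 0.1 mg/ml BSA in 1×DPBS (with Ca²⁺/Mg²⁺), 30 min. Bound RNA captured on nitrocellulose, free RNA on nylon; filters quantified by phosphorimaging. Single-point screen.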

[7] = target: T1, thrombin (endogenous, clotting assay in …); test: inhibition; PT at 10 uM; remark: listed apart in the source

For ACTGCCTAGGATGGGTAGGGTGGTGGCAGT (ssDNA) [ARC2169.1], the activity [1] was 300 s.

Work on ACTGCATAGGTTGGGTAGGGTGGTGGCAGT (ssDNA) [ARC2169.7] yielded an activity [1] of 300 s.

CCTCAGGGATGGTGTGGGTGGCTGAGGTTT (ssDNA) [ARC2185] showed an activity [2] of 384 s.

For TCCCATCGATCTGGGGTAGTTTTATTGGGTCGGGTGGCTGAGGATCGATC (ssDNA) [AMX(453)_B10], the activity [3] was 24.8 s.

Binder TCCCATCGATCTGGGGTAGTTTTATTGGGTTGGGTGGCTGAGGATCGATC (ssDNA) [AMX(454)_H3] has an activity [3] of 35.4 s.

TTTTTTCCTCAGGGATGGTGTGGGTGGCTGAGG (ssDNA) [ARC2188] was tested, and the activity [4] was 426 s.

Work on TTTCCTCAGGGATGGTGTGGGTGGCTGAGGTTT (ssDNA) [ARC2189] yielded an activity [4] of 410 s.

TTTTTTCTGCCTAGGTTGGGTAGGGTGGTGGCAG (ssDNA) [ARC2194] gave an activity [4] of 462 s.

With ACTGCATAGGTTGGGTAGGGTGGTTGCAGT (ssDNA) [ARC2169.6] the activity [1] was 300 s.

TCCCGTAATCGAGCCTGGTATTGTTGGCCTGGGTGGCTGAGGATCGATC (ssDNA) [AMX(395)_A11] gave a binding signal [5] of 35.8 % bound.

Binder TTTCTGCCTAGGTTGGGTAGGGTGGTGGCAG (ssDNA) [ARC2193] has an activity [4] of 545 s.

In the case of CTGCCTAGGTTGGGTAGGGTGGTGGCAGTTTTTT (ssDNA) [ARC2192], the activity [4] is reported as 423 s.

For CTGCCTAGGTTGGGTAGGGTGGTGGCAGTTT (ssDNA) [ARC2191], the activity [4] was 453 s.

Binder TTTTTTCTGCCTAGGTTGGGTAGGGTGGTGGCAGTTTTTT (ssDNA) [ARC2196] has an activity [4] of 441 s.

With TCCCGATTGGAAAGCCTAGGATGGGTAGGGTGGTGGCTGAGGATCGATC (ssDNA) [AMX(399)_F12] the Kd [6] was 0.66 nM, the binding signal (prothrombin) was 48.2 % bound and the activity [7] was 74.9 s.

TCCTGATTGATCTGAGGGGTATTGTTGGCGTGGGTGGCTGAGGATCGATC (ssDNA) [AMX(453)_C10] was tested, and the activity [3] was 104 s.

For TCCCACGGTCCTCACCTAGGATGGTTAGGGTGGTGGCTGAGGATCGATC (ssDNA) [AMX(395)_G2], the binding signal [5] was 33.1 % bound.

TCCCGGTCGTATTAGTGTGGGTGGTGTAGGGTGGTGGCTGAGGATCGATC (ssDNA) [AMX(395)_E11] was tested, and the binding signal [5] was 33.7 % bound.

TCCCGGTAGCGATCCAGAGAGGGATGGGGTGGGTGGCTGAGGATCGATC (ssDNA) [AMX(395)_H9] was tested, and the binding signal [5] was 9.61 % bound.

CCTCAGGGATGGTGTGGGTGGCTGAGGTTTTTT (ssDNA) [ARC2186] gave an activity [2] of 408 s.

In the case of TCCCTGCATCGAGCCTCTATGGGATGGTTTGGGTGGCTGAGGATCGATC (ssDNA) [AMX(454)_F9], the activity [3] is reported as 25 s.

Binder TCCCGGTCGAGTCCTCACGAAGGGTTGGGAGGGTGGCTGAGGATCGATC (ssDNA) [AMX(395)_E7] has a binding signal [5] of 9.12 % bound.

TTTTTTCCTCAGGGATGGTGTGGGTGGCTGAGGTTTTTT (ssDNA) [ARC2190] was tested, and the activity [4] was 389 s.

In the case of ACTGCCTAGGGTGGGTAGGGTGGTGGCAGT (ssDNA) [ARC2169.2], the activity [1] is reported as 300 s.

Binder TCCCCGATGTGTCAGCCTAGGGTGGTTAGGGTGGTGGCTGAGGATCGATC (ssDNA) [AMX(398)_C5] has a Kd [6] of 2.2 nM, a binding signal (prothrombin) of 19.2 % bound and an activity [7] of 64.7 s.

For TCCCATGATCGTTAGATTCAGGGATGGTGTGGGTGGCTGAGGATCGATC (ssDNA) [AMX(453)_G5], the activity [3] was 29.3 s.

TCCCATGATCGTCAGATTCAGGGATGGTGTGGGTGGCTGAGGATCGATC (ssDNA) [AMX(395)_E8] showed a binding signal [5] of 21.3 % bound.

Work on ATCCCAATGTTGAGACGAGTAGGTGTGGGTAGGGTGGCTGAGGATCGATC (ssDNA) [AMX(453)_A9] yielded an activity [3] of 29.3 s.

Binder TCCCATCTTCTGTAGCCTAGGTTGGGTAGGGTGGTGGCTGAGGATCGATC (ssDNA) [AMX(398)_H5] has an activity [7] of 71 s.

TCCCTGCTTGTCGATATTTTAGGGTTGGTGTGGGTGGCTGAGGATCGATC (ssDNA) [AMX(454)_D11] was tested, and the activity [3] was 43.4 s.

With CCCGACTGATTCTTACCTTAGGGATGGTGTGGGTGGCTGAGGATCGATC (ssDNA) [AMX(454)_B9] the activity [3] was 32 s.

For TCCCGACTTCGATTACTCAGGGGTGGCTGTGGGTGGCTGAGGATCGATC (ssDNA) [AMX(395)_E4], the binding signal [5] was 24 % bound.

Binder TCCCGAGCGATACTGCCTAGGCTGGGTAGGGTGGTGGCTGAGGATCGATC (ssDNA) [AMX(398)_C10] has a Kd [6] of 3.27 nM, a binding signal (prothrombin) of 40.9 % bound and an activity [7] of 58.8 s.

Work on TCCCGAGCGATACTGTCTAGGTTGGGTAGGGTGGTGGCTGAGGATCGATC (ssDNA) [AMX(453)_F7] yielded an activity [3] of 28.6 s.

In the case of TCCCGAGCGATATTGTCTAGGTTGGGTAGGGTGGTGGCTGAGGATCGATC (ssDNA) [AMX(453)_F11], the activity [3] is reported as 65.8 s.

With TCCCGAGGGACGACGCCTAGGTTGGGTAGGGTGGTGGCTGAGGATCGATC (ssDNA) [AMX(399)_C11] the Kd [6] was 1.74 nM, the binding signal (prothrombin) was 41.6 % bound and the activity [7] was 52.6 s.

Work on TCCCGCAATCGGTACTCAGGAGGATGGTTGGGGTGGCTGAGGATCGATC (ssDNA) [AMX(395)_B5] yielded a binding signal [5] of 17.1 % bound.

Binder TCCTATCGATACGGGGTCTTCTATTGGGTCGGGGTGGCTGAGGATCGATC (ssDNA) [AMX(395)_E2] has a binding signal [5] of 6.51 % bound.

In the case of TCCCGAGTGTCATATCATCAGAGGTTGGAGTGGGTGGCTGAGGATCGATC (ssDNA) [AMX(395)_D5], the binding signal [5] is reported as 13.4 % bound.

Binder ACTGCATAGGTTGGGTAGGGTGGTGCAGT (ssDNA) [ARC2169.8] has an activity [1] of 28.7 s.

Work on TCCCTGGTTTCGATCTGTTTTGGTTGGTCTGGGTGGCTGAGGATCGATC (ssDNA) [AMX(454)_B12] yielded an activity [3] of 21.9 s.

For TTTCTGCCTAGGTTGGGTAGGGTGGTGGCAGTTT (ssDNA) [ARC2195], the activity [4] was 438 s.

With TCCCATAGTATCGAGCCGATTGGATGGTCTGGGTGGCTGAGGATCGATC (ssDNA) [AMX(395)_F3] the binding signal [5] was 6.29 % bound.

Binder ACTGCCTAGGTTGGGTAGGATGGTGGCAGT (ssDNA) [ARC2169.4] has an activity [1] of 53.8 s.

Work on TCCCAGAGCGGAAATCCTCAGGGGTGGGGTGGGTGGCTGAGGATCGATC (ssDNA) [AMX(395)_G11] yielded a binding signal [5] of 21.9 % bound.

TCCCATGAACTCAGGGTAATTTTTTGGTGTGGGTGGCTGAGGATCGATC (ssDNA) [AMX(398)_D9] was tested, and the Kd [6] was 5.64 nM, the binding signal (prothrombin) was 41.8 % bound and the activity [7] was 80.8 s.
